T1: CEACAM-8 (#9639-CM-050, R&D Systems) (UniProt P31997 35-320, limits assumed)
T1 construct: Bought protein
T1 sequence (looked up): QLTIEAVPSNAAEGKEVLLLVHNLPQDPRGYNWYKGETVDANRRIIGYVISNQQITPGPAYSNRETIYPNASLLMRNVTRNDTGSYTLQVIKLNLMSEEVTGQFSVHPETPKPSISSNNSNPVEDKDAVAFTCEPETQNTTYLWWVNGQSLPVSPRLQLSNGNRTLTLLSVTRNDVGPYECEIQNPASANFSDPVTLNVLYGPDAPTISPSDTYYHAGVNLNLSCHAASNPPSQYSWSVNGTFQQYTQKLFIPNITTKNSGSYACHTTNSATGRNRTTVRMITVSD

T2: human CEACAM5 (hCEACAM-5, #4128-CM-050, R&D Systems) (human, UniProt P06731 35-685)
T2 construct: Bought protein; also called Human CEACAM5-His; monomeric human CEACAM5-His
T2 sequence (looked up): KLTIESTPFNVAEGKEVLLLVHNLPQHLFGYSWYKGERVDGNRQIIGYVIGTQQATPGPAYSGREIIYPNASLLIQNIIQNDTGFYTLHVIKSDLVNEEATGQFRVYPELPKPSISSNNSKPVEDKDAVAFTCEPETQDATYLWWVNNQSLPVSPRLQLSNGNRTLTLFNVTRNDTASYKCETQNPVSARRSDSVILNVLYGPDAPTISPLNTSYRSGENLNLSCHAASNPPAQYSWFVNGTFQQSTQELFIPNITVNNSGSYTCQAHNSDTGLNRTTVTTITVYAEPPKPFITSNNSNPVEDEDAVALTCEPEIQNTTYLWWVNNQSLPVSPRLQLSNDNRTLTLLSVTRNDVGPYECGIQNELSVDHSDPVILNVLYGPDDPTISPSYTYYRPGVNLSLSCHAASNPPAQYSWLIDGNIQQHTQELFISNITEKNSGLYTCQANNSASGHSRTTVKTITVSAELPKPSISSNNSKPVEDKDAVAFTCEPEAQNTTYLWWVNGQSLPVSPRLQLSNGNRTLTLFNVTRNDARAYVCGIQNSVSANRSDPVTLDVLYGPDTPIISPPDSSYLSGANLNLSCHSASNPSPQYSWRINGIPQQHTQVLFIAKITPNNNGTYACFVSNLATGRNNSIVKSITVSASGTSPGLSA

T3: human CEACAM1 expressed on CHO cells (human, UniProt P13688 35-526)
T3 construct: whole, on cells; also called CHO-CEACAM1; CEACAM1 on cells
T3 sequence (looked up): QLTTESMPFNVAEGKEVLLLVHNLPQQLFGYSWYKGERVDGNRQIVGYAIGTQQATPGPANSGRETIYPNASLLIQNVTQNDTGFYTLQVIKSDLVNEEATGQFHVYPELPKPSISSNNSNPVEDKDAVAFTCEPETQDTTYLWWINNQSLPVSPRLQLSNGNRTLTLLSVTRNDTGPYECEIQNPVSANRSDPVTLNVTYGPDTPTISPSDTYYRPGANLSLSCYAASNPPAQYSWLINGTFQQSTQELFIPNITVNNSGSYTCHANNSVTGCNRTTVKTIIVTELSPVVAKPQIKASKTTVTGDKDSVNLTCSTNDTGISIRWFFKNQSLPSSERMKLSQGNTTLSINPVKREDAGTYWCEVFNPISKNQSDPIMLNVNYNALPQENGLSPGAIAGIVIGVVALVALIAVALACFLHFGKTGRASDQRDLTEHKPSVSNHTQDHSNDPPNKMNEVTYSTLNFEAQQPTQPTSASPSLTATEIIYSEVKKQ

T4: human CEACAM5 expressed on cells (CHO-CEACAM5; MKN45, LS174T tumor cells) (human, UniProt P06731 35-685, GPI anchor on the C-terminal residue (685); heavily N-glycosylated)
T4 construct: also called CEACAM5 on cells; CEA expressed on cells
T4 sequence: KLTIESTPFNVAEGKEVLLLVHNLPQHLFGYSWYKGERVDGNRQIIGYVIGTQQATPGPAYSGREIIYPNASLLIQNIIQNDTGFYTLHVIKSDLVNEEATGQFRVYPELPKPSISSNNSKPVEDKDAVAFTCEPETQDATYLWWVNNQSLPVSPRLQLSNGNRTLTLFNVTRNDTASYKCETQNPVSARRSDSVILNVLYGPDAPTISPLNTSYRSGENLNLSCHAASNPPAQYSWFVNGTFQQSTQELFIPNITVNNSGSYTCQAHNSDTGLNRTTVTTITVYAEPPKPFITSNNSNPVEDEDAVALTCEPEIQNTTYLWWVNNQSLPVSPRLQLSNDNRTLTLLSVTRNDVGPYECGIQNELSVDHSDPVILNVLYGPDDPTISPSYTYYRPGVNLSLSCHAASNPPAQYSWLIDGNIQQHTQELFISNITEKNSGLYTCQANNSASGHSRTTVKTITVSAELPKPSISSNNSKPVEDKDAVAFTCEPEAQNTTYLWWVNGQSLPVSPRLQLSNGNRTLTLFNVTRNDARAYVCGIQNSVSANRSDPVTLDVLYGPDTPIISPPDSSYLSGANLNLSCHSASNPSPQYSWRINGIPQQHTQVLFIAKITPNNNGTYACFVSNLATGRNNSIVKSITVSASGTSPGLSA


Tests used:
[1] = target: human CD40 expressed on cells (CD40 reporter cells, HEK Blue CD40L cells, B cells, Raji cells) (human, UniProt P25942 21-277); test: cell-based or functional assay
Sequence of human CD40 expressed on cells (CD40 reporter cells, HEK Blue CD40L cells, B cells, Raji cells) (P25942 21-277): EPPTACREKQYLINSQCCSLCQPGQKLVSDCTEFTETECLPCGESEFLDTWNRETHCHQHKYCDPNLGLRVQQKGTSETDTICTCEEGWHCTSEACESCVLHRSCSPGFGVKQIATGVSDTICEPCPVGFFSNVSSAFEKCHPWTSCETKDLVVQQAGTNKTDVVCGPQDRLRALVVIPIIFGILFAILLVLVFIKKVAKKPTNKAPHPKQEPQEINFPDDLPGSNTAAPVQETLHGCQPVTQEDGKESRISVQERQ

[2] = target: T1, CEACAM-8 (#9639-CM-050, R&D Systems); test: ELISA; antigen coated at 0.5 µg/mL, bsAb titrated, anti-human kappa-HRP, luminescence [3/7) Multi40]
Method: (§1) 96-well plates were coated with 0.5 μg/mL antigen, hCEACAM-1 (2244-CM-050, R&D Systems), hCEACAM-5 (4128-CM-050, R&D Systems), hCEACAM-6 (3934-CM-050, R&D Systems) or CEACAM-8 (9639-CM-050, R&D Systems) in PBS over night at 4° C. After washing in PBS/0.05% Tween 20 (PBST), the plates were blocked with PBST, 2% BSA for at least 30 minutes at room temperature before a second round of washing. RUBY bsAbs, diluted in PBST, 0.5% BSA, were then added and allowed to bind for at least 1 hour at room temperature. […] Finally, a final round of washing was performed and bound complexes detected using SuperSignal Pico Luminescent as substrate and luminescence signals were measured using Fluostar Optima.

[3] = target: T2, human CEACAM5 (hCEACAM-5, #4128-CM-050, …); test: dual target ELISA; hCEACAM-5 coated, bsAb titrated, detection with biotinylated hCD40-muIg and streptavidin-HRP, luminescence; signal needs both targets [1/2) B]
Method: as §1

[4] = target: T3, human CEACAM1 expressed on CHO cells; test: flow cytometry on CEACAM1-transfected CHO cells, fluorochrome-conjugated anti-human IgG [1/2) B]
From the text: The human CEACAM5 and CEACAM1 genes were cloned into pcDNA3.1, and the vector was subsequently stably transfected into CHO cells. […] Binding of the antibodies was detected using fluorochrome-conjugated anti-human IgG and analyzed using flow cytometry.

[5] = target: T4, human CEACAM5 expressed on cells …; test: flow cytometry on LS174T tumor cells (intermediate CEACAM5), fluorochrome-conjugated anti-human IgG [2/3) E]
[6] = target: T2, human CEACAM5 (hCEACAM-5, #4128-CM-050, …); test: ELISA; antigen coated at 0.5 µg/mL, bsAb titrated, anti-human kappa-HRP, luminescence [3/7) Multi39]
Method: as §1

EC50 (nM), HEK Blue CD40L SEAP reporter, CHO-CEACAM5 crosslinking, 0 Raji sink cells/well [1]	EC50 (nM), HEK Blue CD40L SEAP reporter, CHO-CEACAM5 crosslinking, 10 000 Raji sink cells/well [1]	EC50 (nM), HEK Blue CD40L SEAP reporter, CHO-CEACAM5 crosslinking, 30 000 Raji sink cells/well [1]	EC50 (nM), HEK Blue CD40L SEAP reporter, CHO-CEACAM5 crosslinking, 90 000 Raji sink cells/well [1]	Binder	other results
0.04 nM	0.08 nM	0.11 nM	0.41 nM	ffAC_05337 (bispecific antibody, human IgG1, kappa, L234A L235A) heavy: not shown light: DIQMTQSPSSLSASVGDRVTITCRASQSISSYLNWYQEKPGKAPKLLIYAASSLQSGVPSRFSGSGSGTDFTLTISSLQPEDFATYYCQQAGNPHTFGQGTKLEIKRTVAAPSVFIFPPSDEQLKSGTASVVCYLNNFYPREAKVQWKVDNALQSGNSQESVTEQDSKDSTYSLWSTLTLSKADYEKHKVYACEVTHQGLSSPVTKSFNRGEC EVQLLESGGGLVQPGGSLRLSCAASGFTFSTYGMHWVREAPGKGLEWLSYISGGSSYIFYADSVKGRFTISRDNSKNTLYLQMNSLRAEDTAVYYCARILRGGSGMDLWGQGTLVTVSSASTKGPSVFPLAPSSKSTSGGTAALGCLVKDYFPEPVTVSWNSGALTSGVHTFPAVLQSSGLYSLTSVVEVPSSSLGTQTYICNVNHKPSNTKVDKKVEPKSC	
0.04 nM	0.06 nM	0.11 nM	0.36 nM	Multi42 (bispecific antibody, human IgG1, kappa, L234A L235A) heavy: not shown light: EIVLTQSPGTLSLSPGERATLSCRASQSVSSSYLAWYQEKPGQAPRLLIYGASSRATGIPDRFSGSGSGTDFTLTISRLEPEDFAVYYCQQYWYPLTFGQGTKLEIKRTVAAPSVFIFPPSDEQLKSGTASVVCYLNNFYPREAKVQWKVDNALQSGNSQESVTEQDSKDSTYSLWSTLTLSKADYEKHKVYACEVTHQGLSSPVTKSFNRGEC EVQLLESGGGLVQPGGSLRLSCAASGFTFSTYGMHWVREAPGKGLEWLSYISGGSSYIFYADSVKGRFTISRDNSKNTLYLQMNSLRAEDTAVYYCARILRGGSGMDLWGQGTLVTVSSASTKGPSVFPLAPSSKSTSGGTAALGCLVKDYFPEPVTVSWNSGALTSGVHTFPAVLQSSGLYSLTSVVEVPSSSLGTQTYICNVNHKPSNTKVDKKVEPKSC	
				Multi40 (bispecific antibody, Optimized RUBY format; copies: 2 + 2 + 2) heavy 1: not shown light: DIQMTQSPSSLSASVGDRVTITCRASQSISSYLNWYQEKPGKAPKLLIYAASSLQSGVPSRFSGSGSGTDFTLTISSLQPEDFATYYCQQSSHGPLLTFGQGTKLEIKRTVAAPSVFIFPPSDEQLKSGTASVVCYLNNFYPREAKVQWKVDNALQSGNSQESVTEQDSKDSTYSLWSTLTLSKADYEKHKVYACEVTHQGLSSPVTKSFNRGEC heavy 2: EVQLLESGGGLVQPGGSLRLSCAASGFTFSTYGMHWVREAPGKGLEWLSYISGGSSYIFYADSVKGRFTISRDNSKNTLYLQMNSLRAEDTAVYYCARILRGGSGMDLWGQGTLVTVSSASTKGPSVFPLAPSSKSTSGGTAALGCLVKDYFPEPVTVSWNSGALTSGVHTFPAVLQSSGLYSLTSVVEVPSSSLGTQTYICNVNHKPSNTKVDKKVEPKSC	binding result [2]: no binding (tested: 100 nM); EC50 (read off the curve) [3]: ~0.6 nM
0.03 nM	0.06 nM	0.13 nM	0.36 nM	Multi41 (bispecific antibody, Optimized RUBY format; copies: 2 + 2 + 2) heavy 1: not shown light: DIQMTQSPSSLSASVGDRVTITCRASQSISSYLNWYQEKPGKAPKLLIYAASSLQSGVPSRFSGSGSGTDFTLTISSLQPEDFATYYCQQWRSHLFTFGQGTKLEIKRTVAAPSVFIFPPSDEQLKSGTASVVCYLNNFYPREAKVQWKVDNALQSGNSQESVTEQDSKDSTYSLWSTLTLSKADYEKHKVYACEVTHQGLSSPVTKSFNRGEC heavy 2: EVQLLESGGGLVQPGGSLRLSCAASGFTFSTYGMHWVREAPGKGLEWLSYISGGSSYIFYADSVKGRFTISRDNSKNTLYLQMNSLRAEDTAVYYCARILRGGSGMDLWGQGTLVTVSSASTKGPSVFPLAPSSKSTSGGTAALGCLVKDYFPEPVTVSWNSGALTSGVHTFPAVLQSSGLYSLTSVVEVPSSSLGTQTYICNVNHKPSNTKVDKKVEPKSC	binding result [4]: no binding (tested: 400 nM)
				AC_05337 (bispecific antibody) heavy 1: not shown light: DIQMTQSPSSLSASVGDRVTITCRASQSISSYLNWYQEKPGKAPKLLIYAASSLQSGVPSRFSGSGSGTDFTLTISSLQPEDFATYYCQQAGNPHTFGQGTKLEIKRTVAAPSVFIFPPSDEQLKSGTASVVCYLNNFYPREAKVQWKVDNALQSGNSQESVTEQDSKDSTYSLWSTLTLSKADYEKHKVYACEVTHQGLSSPVTKSFNRGEC heavy 2: EVQLLESGGGLVQPGGSLRLSCAASGFTFSTYGMHWVREAPGKGLEWLSYISGGSSYIFYADSVRGRFTISRDNSENALYLQMNSLRAEDTAVYYCARILRGGSGMDLWGQGTLVTVSSASTKGPSVFPLAPSSKSTSGGTAALGCLVKDYFPEPVTVSWNSGALTSGVHTFPAVLQSSGLYSLSSVVEVPSSSLGTQTYICNVNHKPSNTKVDKKVEPKSC	EC50 (read off the curve) [5]: ~4 nM
				Multi39 (bispecific antibody, Optimized RUBY format; copies: 2 + 2 + 2) heavy 1: not shown light: not shown heavy 2: EVQLLESGGGLVQPGGSLRLSCAASGFTFYDHAMSWVREAPGKGLEWVSAISGSYGSTGYADSVKGRFTISRDNSKNTLYLQMNSLRAEDTAVYYCARWGGWAGDIDYWGQGTLVTVSSASTKGPSVFPLAPSSKSTSGGTAALGCLVKDYFPEPVTVSWNSGALTSGVHTFPAVLQSSGLYSLTSVVEVPSSSLGTQTYICNVNHKPSNTKVDKKVEPKSC	EC50 (read off the curve) [6]: 1 to 2 nM

Reference: patent US20260273049A1 (ALLIGATOR BIOSCIENCE, published 2026)
